Measured values published in patent US8329653 (BUCK INSTITUTE FOR AGE RESEARCH, dated 2012).
Each block holds one binder with its values, some of them ahead of it.

Assays:
[1] = molecular target: T1, endogenous mouse netrin-1 (E16.5 embryonic cortex) (mouse, UniProt O09118 25-604); test: co-immunoprecipitation of endogenous proteins from E16.5 mouse cortex
T1 construct: also called mNet1

[2] = molecular target: T2, endogenous mouse APP (embryonic cortex) (mouse, UniProt P12023 18-770); test: as above
T2 construct: whole, on cells; also called endogenous APP

[3] = molecular target: T3, Human Net 1-FlagM2 (Apotech), recombinant netrin-1 (human, UniProt O95631 25-604); test: ELISA, Aβ1-17 coated at 0.07 µg/ml, various netrin-1 concentrations
T3 construct: also called recombinant netrin-1 (Apotech Corp.); not shown: FlagM2 tag
Method: An anti-mouse antibody coupled to HRP (Jackson ImmunoResearch, Inc) was added at a concentration of 0.8 μg/ml for 1 hour at 37° C. Colorimetric intensity was measured at a wavelength of 490 nm using a Victor station (Wallac).

binding result [2]: no binding
B2: endogenous mouse bFGF (E16.5 embryonic cortex) (ligand, UniProt P15655 10-154, looked up)
chain: PALPEDGGAAFPPGHFKDPKRLYCKNGGFFLRIHPDGRVDGVREKSDPHVKLQLQAEERGVVSIKGVCANRYLAMKEDGRLLASKCVTEECFFFERLESNNYNTYRSRKYSSWYVALKRTGQYKLGSKTGPGQKAILFLPMSAKS

binding result [1]: no binding
B3: endogenous mouse TrkC (E16.5 embryonic cortex) (receptor)
chain: not shown
notes: whole, on cells

The next lines start with the binder.

B1: endogenous mouse p75^ntr (E16.5 embryonic cortex) (receptor, UniProt Q9Z0W1 32-427, looked up)
chain: KETCSTGMYTHSGECCKACNLGEGVAQPCGANQTVCEPCLDSVTFSDVVSATEPCKPCTECLGLQSMSAPCVEADDAVCRCSYGYYQDEETGRCEACSVCGVGSGLVFSCQDKQNTVCEECPEGTYSDEANHVDPCLPCTVCEDTERQLRECTPWADAECEEIPGRWITRSTPPEGSDVTTPSTQEPEAPPERDLIASTVADTVTTVMGSSQPVVTRGTADNLIPVYCSILAAVVVGLVAYIAFKRWNSCKQNKQGANSRPVNQTPPPEGEKLHSDSGISVDSQSLHDQQTHTQTASGQALKGDGNLYSSLPLTKREEVEKLLNGDTWRHLAGELGYQPEHIDSFTHEACPVRALLASWGAQDSATLDALLAALRRIQRADIVESLCSESTATSPV
notes: whole, on cells; also called P75-NGFR
binding result [1]: no binding

Binder: DAEFRHDSGYEVHHQKL (peptide, UniProt P05067 672-688, looked up, domain: Aβ1-17) [Aβ1-17 (the 17 first amino acids of Aβ)]
Kd [3]: 30 nM
